Read-outs that look alike come from different tables or passages of the source.

These results are taken from article PMC3742808.

Experiment [1] concerns the target recombinant human APC/C (without CDH1) (human) (UniProt Q9H1A4). The experiment is described as follows: enzyme inhibition.
For experiment [2] the target is unchanged. The experiment is described as follows: enzyme inhibition. This is another data set of the same source.

As a reminder, the Ki is a measure of affinity in units of concentration, obtained from inhibition or displacement. For “EMI1^T (synthetic peptide corresponding to the EMI1 C-terminal tail)”, the Ki in experiment [1] was 48 µM; in experiment [2], 13 µM.
